Data set [1] has as its target T1, mjCgi121 (Methanocaldococcus jannaschii) (UniProt Q57646).
T1 sequence: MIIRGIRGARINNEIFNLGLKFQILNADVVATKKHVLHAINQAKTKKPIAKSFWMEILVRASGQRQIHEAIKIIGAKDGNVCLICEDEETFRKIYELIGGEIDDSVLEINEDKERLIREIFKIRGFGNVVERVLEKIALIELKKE
The data set is described as follows: competition. As to conditions: displacement of 647-CCA (FP); 20 mM HEPES pH 7.5, 100 mM NaCl, 2 mM DTT; filter binding 50 nM 32P-tRNA, 1 h, room temperature; FP 50 nM 647-CCA; NMR 25 C with 10% D2O.

In data set [2] the target is T2, mjCgi121;mjBud32;mjKae1;pfPcc1 (Methanocaldococcus jannaschii;Methanocaldococcus jannaschii;Methanocaldococcus jannaschii;Pyrococcus furiosus) (UniProt Q57646+Q58530+Q58530+Q9V1Z9).
T2 sequence 1: T1 sequence
T2 sequence 2: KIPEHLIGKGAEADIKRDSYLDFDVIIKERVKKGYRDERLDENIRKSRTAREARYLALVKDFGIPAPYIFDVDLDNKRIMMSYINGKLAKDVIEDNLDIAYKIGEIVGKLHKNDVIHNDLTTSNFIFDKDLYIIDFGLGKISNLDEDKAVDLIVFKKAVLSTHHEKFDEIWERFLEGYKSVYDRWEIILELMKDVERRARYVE
T2 sequence 3: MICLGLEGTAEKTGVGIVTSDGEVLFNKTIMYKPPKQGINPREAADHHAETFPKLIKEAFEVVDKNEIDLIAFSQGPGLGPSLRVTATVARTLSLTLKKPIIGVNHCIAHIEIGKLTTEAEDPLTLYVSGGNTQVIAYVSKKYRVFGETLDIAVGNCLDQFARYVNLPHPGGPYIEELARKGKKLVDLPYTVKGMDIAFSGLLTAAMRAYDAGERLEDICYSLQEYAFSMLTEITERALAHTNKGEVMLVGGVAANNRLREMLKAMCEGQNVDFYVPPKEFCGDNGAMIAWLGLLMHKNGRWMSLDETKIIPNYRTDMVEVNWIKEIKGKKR
T2 sequence 4: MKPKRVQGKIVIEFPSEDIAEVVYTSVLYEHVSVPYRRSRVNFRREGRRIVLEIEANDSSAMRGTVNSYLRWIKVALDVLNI
Put plainly: fluorescence polarization. The note with it: 20 mM HEPES pH 7.5, 100 mM NaCl, 2 mM DTT; filter binding 50 nM 32P-tRNA, 1 h, room temperature; FP 50 nM 647-CCA; NMR 25 C with 10% D2O.

For data set [3], the target named is T3, mjCgi121;mjBud32 (Methanocaldococcus jannaschii;Methanocaldococcus jannaschii) (UniProt Q57646+Q58530).
T3 sequence 1: T1 sequence
T3 sequence 2: T2 sequence 2
The data set is described as follows: competition. The note with it: displacement of 647-CCA (FP), 0.8 uM protein; 20 mM HEPES pH 7.5, 100 mM NaCl, 2 mM DTT; filter binding 50 nM 32P-tRNA, 1 h, room temperature; FP 50 nM 647-CCA; NMR 25 C with 10% D2O.

Data set [4] concerns the target mjCgi121;mjBud32 E152R (Methanocaldococcus jannaschii;Methanocaldococcus jannaschii) (UniProt Q57646). Put plainly: competition. The note with it: displacement of 647-CCA (FP), 0.8 uM protein; 20 mM HEPES pH 7.5, 100 mM NaCl, 2 mM DTT; filter binding 50 nM 32P-tRNA, 1 h, room temperature; FP 50 nM 647-CCA; NMR 25 C with 10% D2O.
The target of data set [5] is mjCgi121;mjBud32 R60E (Methanocaldococcus jannaschii;Methanocaldococcus jannaschii) (UniProt Q57646). The data set is described as follows: competition. The note with it: displacement of 647-CCA (FP), 0.8 uM protein; 20 mM HEPES pH 7.5, 100 mM NaCl, 2 mM DTT; filter binding 50 nM 32P-tRNA, 1 h, room temperature; FP 50 nM 647-CCA; NMR 25 C with 10% D2O.

Turning to mjtRNAValCAC, the binding signal (fold less efficient than mjtRNALys) in data set [1] worked out at 7.3. Broadly, the Kd is the free concentration of one partner at which half of the binding sites on the other are occupied at equilibrium, for simple one-to-one binding. Higher therefore signals weaker binding. As to CCGCCA [647-CCA], in data set [2], the Kd was found to be 263 nM. One may read the IC50 as the concentration at which inhibition is half-maximal. A low value points to inhibition by little substance. On to mjtRNALysUUU, for which the IC50 in data set [3] was determined as 1200 nM; in data set [4], 600 nM; in data set [5], 7600 nM.

These data come from article PMC7718258.
